Assay: soluble on expression in E. coli; label from the status in PepcDB or PDB records

Sequence	soluble on expression in E. coli
MAHHHHHHMSGRCFSKSLESDVDSAAAAESSLSATEVSTDGYRTGKQPRHVAFLLEKDLKETDTEEVPRAAFAGRRGGAGARPTEEQWSWSGRAEADALRQRALQCGEDFVRVASGLGYEVVAHTPTAFLKRGMTEKTAALFGVAQPEKQGGTGLAVARSATARASTGAVLLSSPSAAETTVTLAAPFSSGGSSVFPRKGELDSCSSRSSSPGTEDQVGMVPVLSPLLQGSEPGQRRLSTDASLRALEVQTPRTTGAHAGVYRYPATIASLHPLQDSTPNSVADGNGVHTSPHRSSRTGFGAEHHANDGANPPGPAIANSTRAVHWTPTTRHPSPSRGSPASHRALTPRTVFPTGNHPVTASLMVPGQQSDAFAVRLSIMDVTSSRTNSNTNTSMSTEHLNGHEFVNVGGSQNTNNRFFTSSTDALNTPAVRMTDDEDWLRATGRLIQ	not soluble
MQKKEKEGRRKLKYDSNDGLLPEIRRVCGFPHHISEELSARGSGKKKKQVEEEWKWPEAQICGICSSGGNILCCEQCPASFHLACIGYESSDLPDDNFYCNRCRNLPENVRLFPPEKCSPSVNPVLRVENENHRNWEAIEYHCNRLRDEEQAEKMKKDVAYGPKSEFAEIQDCFRDKNLLKALGMANPMDYTIPPEFQADRDCFSGDAMEDKRPTIMGEVCAECNLKDDWTRMLKCDFCDLIWHQKCVTPPLIHVRAYFYWMCPRHPETVIDSVLIGDEISREDRRRLYDKYADVEPSYEIFEEFCIKTEQFRMKSEVFDSEEMYYDPEEASTSFMQTVIKPRQTSRKTTGRSASKKKSNGRFFASSWDFPGLSSRETSPSRKNSRKSPDSVATERKDRVLDKIDKKRSIKLTEEEIIMSIMPVEESSRAEYLTQKMLGTDIEQSTNFFNRHSAMIDRIRAFYGNLPEKELIKLMREDLDPVETIRGGGTQSIISQNEKPYRKKLKADVEVLIQHVGLGTDSTERHFNSIGTEAFYRRCAPPVTARNVLNQKTLREVVLNSQKEAHEGAGVYEYHAEPEQLENLVLLAYEPSFESPEDRDTYFVPSMTIWSKEPICALTRKWAASGASKQAPPSSSSSEAPSVEAEVKEEVVEEEDEENEARMRRESTATSSIVYNNDTGPLEFIEENMPPPAATITEKSDPFDFSSLEMPEIHEKAETVYEAEGYYGESDDLPLDLRRTKSESDLVDRIIWPLVRSALQNFIRREDCHQMHLEHNYSSLYQTHDSDEENQPVVEVEKLITYEEYQENLYSAEFASPQTPPPIPPPPAVYYDNFSDAPRKRGRPVGSRNRKEGDTTIPKQQRKRNPQPVGRGRGRGGGRPRGSRSSRGSMDDGGGSRRHSTASDANESAELLNQPVTKQLRDEIKEIKLKYTKMMMDRGFEQAKDEYFRNRDAALSKWTPEQWKEHNEQCVAARLSSLIPYDQRYFLPTQRVLARLDLEDGDLRLPAVHLPIAIQRCVTKLGTAHDCHVRCDKLTGDAWCSVLADYHCDIVRDYYSDNFYISTLGTEAVFVDGRAVRRPRLTPFEAAEKLRTRGSSTIIPPHIKCRCQKHSDLQISRQESTGELVRCGILKLEHGARIQIGCVAFIFSRI	not soluble
WSYEHLHLTNRIKLLYAPTFRDNELGMAKLHLDIAEMKQALGNEYQLILKLHPSISNDLEKLDDDFVIYVDKETPIETLLPVVDILITDYSSIPFEFALLQKPMIFFTYDLTEYNNARGLSDGFLETIPGPHVFTTTELIEVIQNNTFDLEKVRLFAEKWNKYSDGFSSERFVSFLKE	not soluble
MGSDKIHHHHHHMVKNYVLDTNVLIHDPDSIFSFEDNNVIIPLPVLEELDKLKREHGSVGKNAREVIRHLDELRKKGNLRKGIPLENGGILRVMVLEREVENVPRFLHERYVDNIILAYVIELMNREKIPTILVSKDINLRVKADSLGIPAQDYLTDRSELETMPKGYVEIDDEELKKQLKVKVTVEKKLDLLDNFYIDLGGVYGKYRKGKVLRVEPFETMGISPRNREQIFSMDALLDDEIPLVFLVGIAGTGKTLLALACGLYKVLVEKRYKKLIVTRPTVPMGRDIGYLPGELEKKMKPWLQPIMDNLELISSLSGLKIKELEKQEILEVEAISFIRGRSIPKQFIIIDEAQNLTPHEVKTILTRVGEDTKIVLVGDPYQIDTPYLDKDTNGLVYAALKLLESDLSAVIKLEKGERSRLATIAAELL	not soluble
MSLTDNLQDLISTKLAAAIANPLFPAVDSQLRAGRHISLDQLDNHAFLMDFQGELDSFYRRYNVELIRAPEGFFYLRPKATTLIARSVLTELEMLVGKVLCYLYLSPERLAQQGIFSTQEVYDELLNLADENKLLKAVNQRSSGSDLDKQKLAEKVRAALNRLRRLGMIHGVGEQNSGKFTIAEAVFRFGAEVRAGDDPREAQLRPIRDGRPATPGFWAAGKTRSATGGEHRDEGGDEGGDEERAEGHHHHHH	soluble
AHHHHHHGSKAVTFPVPWEYLKRIFEGKNVFVKPATLRVEEGMKVIFYASRENQGWHGEAEVERVEYYTSVEEIIKKYRDKLFLTPEELRRYERDRARWDSGRRKRPWMVLVLRNIEKYPRVVKPKKFIVVSGRYVDEKEYEEIRRSTS	not soluble
MSLSEAVERQTLTIANSKAWKPYSYLDEQGQPSGILIDFWLAFGEANHVDIEFQLMDWNDSLEAVKLGKSDVQAGLIRSASRLAYLDFAEPLLTIDTQLYVHRTLLGDKLDTLLSGAINVSLGVVKGGFEQEFMQREYPQLKLIEYANNELMMSAAKRRELDGFVADTQVANFYIVVSNGAKDFTPVKFLYSEELRPAVAKGNRDLLEQVEQGFAQLSSNEKNRILSRWVHIETIYPRYLMEGHHHHHH	soluble
MGHHHHHHSHMAGWIQAQQLQGDALRQMQVLYGQHFPIEVRHYLAQWIESQPWDAIDLDNPQDRAQATQLLEGLVQELQKKAEHQVGEDGFLLKIKLGHYATQLQKTYDRCPLELVRCIRHILYNEQRLVREANNCSSP	not soluble
MSLADKVVNIGFSGPLSGGAAAYGKDTLSGLQMAVDTLNKSGGIKVGNDKVTFKVVSLDDRYLPNETATNVKRLTGQDIQFIFVPHAGGIQAVQPLAIRDPEFLLVAYSSEPKILAANNPLTFMLPPRYDNYAQPFVATEMKTFGKKLALVGTSSAYGKQWADLIESEWKKQGGTVGRDNAVDYNTTVDFSAAVTKALSEKPDVLFIGGPSQPTALVIKAAREQGFKGGFIVMDQAKFEQMETVIPKNYLDGSVGVLPTRDFPGTQSFVVQYQRAYKKIPTSEAGLNYMGMNVLAKAMELAGTTSDPRKVRAQLDAAAKALPQSKTVYKVFGVTPQATWTPSEGHHHHHH	soluble
MEEERQQSPLEGLSEEALKHVHQLDEPIPIELQASYFRLSAEMRRRGIQLSENEVQDAEQLLFDPVLSDDIKKMTLLRLAITGNITVFRIIERYLESAPDSMRPWALMAQLEARIGILSDLVDEKQLVITSGLGGHDGMMRFMAFLHTDKLQDFEHYQEELIEKELLYRIGKASGEVERLEMHNNYLLLTFLVPINYDLRNFFSSFIAECNQFGHFLSTTFIITNTQLLTPQGAQVALKKYAEENDLPATN	not soluble
MAPSQAPSRDRAGQEDEDRWEARGDRKARKPLVEKKRRARINESLQELRLLLAGTEVQAKLENAEVLELTVRRVQGALRGRAREREQLQAEASERFAAGYIQCMHEVHTFVSTCQAIDATVSAELLNHLLESMPLREGSSFQDLLGDSLAGLPGGSGRSSWPPGGSPESPLSSPPGPGDDLCSDLEEIPEAELNRVPAEGPDLVSTSLGSLTAARRAQSVWRPW	not soluble
MKKEIIVYTISDSLGETSQKLLAAASAQYPDISFLNRYNFSFVTTEEELLEILKDALKDKALVVSTLVSKQLITAAKEFSERTGLLYLDLMAPFFELIQAKAGVDPIEEPGRRHQLDRAYFDKISAIEFAVKYDDGKNPQGFLDSDILLLGVSRTSKTPVSMYLANQGYRVSNLPLIPEVPLPPILEEMDPQKMIGLVCSPETLGQIRSSRLASLGLGNETSYTNVERIEQELAYAEEIFAKYGIPVIDVTAKSVEETAFLIKEKLDERN	not soluble
MVIMAGKAVRTEQVSATRQLILTTAERLFAEHGVYAVSNRQVSEAAGQGNNAAVGYHFGTKTDLVRAIAQRHSERVEELRARQLAALGDSPDLRDWVDCLVRPQFDHLAALGSPTWYARFCAQVMTDPALRQIMTEESRASVSLRAIIVGRNRCMPALPDEVRAERGDMARHLIVHTAEERERALAENRPTPRASWQDAADGLVDAIVGMWLAPVTPRGGG	not soluble
